The conditions of this data set: Geobacillus stearothermophilus, 25 °C, Urea, CD, Sodium phosphate 10 mM, reversible: yes, whole UniProt chain shown.

B1: Large ribosomal subunit protein bL9 wild type, P02417 (protein)
chain: MKVIFLKDVKGKGKKGEIKNVADGYANNFLFKQGLAIEATPANLKALEAQKQKEQRQAAEELANAKKLKEQLEKLTVTIPAKAGEGGRLFGSITSKQIAESLQAQHGLKLDKRKIELADAIRALGYTNVPVKLHPEVTATLKVHVTEQK
As for B1, the unfolding free energy by setting is: (pH 2.4, NaCl 750 mM) 2.9 kcal/mol; (pH 2.79, NaCl 100 mM) 2.3 kcal/mol; (pH 3.15, NaCl 750 mM) 3.1 kcal/mol; (pH 3.55, NaCl 100 mM) 3 kcal/mol; (pH 4.14, NaCl 750 mM) 4 kcal/mol; (pH 4.51, NaCl 100 mM) 3.5 kcal/mol. Further, the unfolding free energy was determined as 4.8 kcal/mol (pH 5.25, NaCl 750 mM); 4.4 kcal/mol (pH 5.99, NaCl 100 mM); 4.7 kcal/mol (pH 6.56, NaCl 750 mM); 4.5 kcal/mol (pH 6.98, NaCl 100 mM); 5.2 kcal/mol (pH 7.26, NaCl 750 mM).

Source of the values: FireProtDB (doi:10.1021/bi982931h).
